Measured values published in US20250282885A1 (VST BIO, published 2025).

Tests used:
human Sdc2 [1] = target: T1, human Sdc2 (human, UniProt P34741 19-144, limits assumed); assay: Octet tandem binning; saturating Ab m4 19844-R4M-P1-A10
T1 construct: Antigen of the Octet tandem binning, loaded on biosensors at 100 nM; also called huSdc2; hSdc2
Protocol: (§1) These studies were performed in a tandem binning assay format with human Sdc2, used as the antigen (concentration of 100 nM). Antigen loaded biosensors were dipped in a saturating solution of antibody (25 μg/ml) for 240 seconds followed by a competing antibody at 5 μg/ml for 180 seconds. […] Since saturation is not possible to achieve saturation with these clones, they are removed in as ligands, but retained in the analyte orientation in the analysis. A table summarizing the results of epitope binning of the 18 antibodies against huSdc2 is illustrated in FIG. 30. Data is normalized, where the raw binding signal from Competing Ab for a given Saturating Ab is divided by binding in the absence a […] (“buffer”). The threshold determining the matrix color is adjustable and dependent upon Ag-Ab binding. […] Table rows are based on similar looking binding profiles. Note that the coloration/cutoff is subjective, yellow color added to represent injections with ambiguous or very weak sandwiching signals. FIG. 31 illustrates a clustergram of the epitope binning studies, which was generated from the normalized binning data by importation into the statistical computing program R (The R Project for Statistical Computing: at r-project.org) and generation of a clustergram with the pvclust package.

human Sdc2 [2] = target: T1, human Sdc2; assay: Octet BLI, heading box over the sensorgram
pig Sdc2 [3] = target: T2, pig Sdc2 (pig, UniProt F1S0L5 19-145); assay: Octet BLI, HIS1K sensor loaded with pigSdc2, antibody as sample; Full R2 0.9988; heading box reads Pig Sdc2 (Kd~ low femtomolar)
T2 construct: also called pSdc2
Protocol: (§2) In order to characterize the binding affinity and in vivo/in vitro functional ability of the twelve clones generated by the previous studies and disclosed in Table 1, a series of assays were performed on each clone. These assays measured the affinity of each antibody clone for human, pig, and mouse Sdc2 using an Octet® binding assay system. Additionally, the functional ability of each clone to inhibit VEGFA-driven permeability (see Santiago, et al. (2021) J Am Heart Assoc. 10(18):e020521) was assessed in two therapeutic settings: a “prevention” study in which three concentrations of antibody (5 μg/ml, 10 μg/ml, 15 μg/ml, 20 μg/ml, and/or 40 μg/ml depending on the study) were pre-incubated for an hour before administration of 100 ng/ml of VEGFA, and a “treatment” study in which 3 hours of pre-treatment with 100 ng/ml VEGFA were followed by treatment with antibody at 20 μg/ml or 40 μg/ml. Results are shown for 8-G17 in FIG. 8 and FIG. 9, 20-H19-AB in FIG. 10 and FIG. 11 (FIG. 12 for monkey ECs), R3-P3-C11 in FIG. 13 and FIG. 14, R4M-P3-E06 in FIG. 15 and FIG. 16, R3-P3-E09 in FIG. 17 and FIG. 18, R3-P1-C02 in FIG. 19 and FIG. 20, R3-P3-A12 in FIG. 21 and FIG. 22, R4M-P3-A12 in FIG. 23 and FIG. 24, and R4M-P1-A10 in FIG. 25 and FIG. 26.

human Sdc2 [4] = target: T1, human Sdc2; assay: Octet tandem binning; saturating Ab m5 19844-R4M-P3-A12 (row boxed, self-self >0.09)
Protocol: as §1

pig Sdc2 [5] = target: T2, pig Sdc2; assay: Octet BLI, HIS1K sensor loaded with pigSdc2, antibody as sample; Full R2 0.9988
Protocol: as §2

human Sdc2 [6] = target: T1, human Sdc2; assay: Octet tandem binning; saturating Ab f12 19838-6-N03-A
Protocol: as §1

human Sdc2 [7] = target: T1, human Sdc2; assay: Octet tandem binning; saturating Ab f4 19844-R3-P3-C11
Protocol: as §1

human Sdc2 [8] = target: T1, human Sdc2; assay: Octet tandem binning; saturating Ab f10 19838-10-I12-A
Protocol: as §1

human Sdc2 [9] = target: T1, human Sdc2; assay: Octet tandem binning; saturating Ab f7 19844-R3-P3-A12
Protocol: as §1

human Sdc2 [10] = target: T1, human Sdc2; assay: Octet tandem binning; saturating Ab m3 19844-R3-P1-C02 (row boxed, self-self >0.09)
Protocol: as §1

human Sdc2 [11] = target: T1, human Sdc2; assay: Octet tandem binning; saturating Ab m2 19838-8G17-A
Protocol: as §1

human Sdc2 [12] = target: T1, human Sdc2; assay: Octet tandem binning; saturating Ab f3 19838-6N03-A
Protocol: as §1

human Sdc2 [13] = target: T1, human Sdc2; assay: Octet tandem binning; saturating Ab f8 19844-R4M-P2-C02
Protocol: as §1

human Sdc2 [14] = target: T1, human Sdc2; assay: Octet tandem binning; saturating Ab m7 19844-R3-P1-E07
Protocol: as §1

human Sdc2 [15] = target: T1, human Sdc2; assay: Octet tandem binning; saturating Ab f11 19838-20-H19-A
Protocol: as §1

[16] = target: human Sdc2 on Human Umbilical Vein Endothelial Cells (HUVEC) (human, UniProt P34741 19-201); assay: cell-based or functional assay
human Sdc2 [17] = target: T1, human Sdc2; assay: Octet BLI, HIS1K sensor loaded with huSdc2, antibody as sample; Full R2 0.998
human Sdc2 [18] = target: T1, human Sdc2; assay: Octet tandem binning; saturating Ab f6 19844-R3-P3-E09
Protocol: as §1

human Sdc2 [19] = target: T1, human Sdc2; assay: Octet tandem binning; saturating Ab m8 19844-R4M-P1-B01 (marked non-binding ligand)
Protocol: as §1

human Sdc2 [20] = target: T1, human Sdc2; assay: Octet tandem binning; saturating Ab f5 19844-R4M-P3-E06
Protocol: as §1

human Sdc2 [21] = target: T1, human Sdc2; assay: Kd (human Sdc2), summary table of the mAbs
human Sdc2 [22] = target: T1, human Sdc2; assay: Octet tandem binning; saturating Ab f9 19838-6-E17-A
Protocol: as §1

human Sdc2 [23] = target: T1, human Sdc2; assay: Octet tandem binning; Buffer in place of a saturating Ab
Protocol: as §1

human Sdc2 [24] = target: T1, human Sdc2; assay: Octet tandem binning; saturating Ab m6 19838-20H19-AA (marked non-binding ligand)
Protocol: as §1

human Sdc2 [25] = target: T1, human Sdc2; assay: Octet BLI, heading box over the sensorgram; remark: listed apart in the source
Protocol: as §2

pig Sdc2 [26] = target: T2, pig Sdc2; assay: Octet BLI, heading box over the sensorgram
Protocol: as §2

human Sdc2 [27] = target: T1, human Sdc2; assay: Octet BLI, HIS1K sensor loaded with huSdc2, antibody as sample; Full R2 0.9968
pig Sdc2 [28] = target: T2, pig Sdc2; assay: Octet BLI, HIS1K sensor loaded with pigSdc2, antibody as sample; Full R2 0.997
human Sdc2 [29] = target: T1, human Sdc2; assay: Octet tandem binning; saturating Ab m1 19838-20H19-AB
Protocol: as §1

T1 sequence (P34741 19-144 limits assumed): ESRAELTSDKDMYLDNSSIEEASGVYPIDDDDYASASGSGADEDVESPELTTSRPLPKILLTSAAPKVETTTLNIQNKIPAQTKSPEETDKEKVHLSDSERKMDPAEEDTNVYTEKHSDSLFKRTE
human Sdc2 on Human Umbilical Vein Endothelial Cells (HUVEC), sequence (P34741 19-201 limits assumed): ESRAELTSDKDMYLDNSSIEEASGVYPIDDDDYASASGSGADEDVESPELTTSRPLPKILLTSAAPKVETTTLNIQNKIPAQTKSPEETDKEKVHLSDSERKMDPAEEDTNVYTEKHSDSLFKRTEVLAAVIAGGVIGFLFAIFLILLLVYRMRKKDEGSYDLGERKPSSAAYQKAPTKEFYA

Binder | raw competing-Ab binding signal (human Sdc2 [1]) | raw competing-Ab binding signal (human Sdc2 [4]) | raw competing-Ab binding signal (human Sdc2 [6]) | raw competing-Ab binding signal (human Sdc2 [7]) | raw competing-Ab binding signal (human Sdc2 [8]) | raw competing-Ab binding signal (human Sdc2 [9]) | raw competing-Ab binding signal (human Sdc2 [10]) | raw competing-Ab binding signal (human Sdc2 [12]) | raw competing-Ab binding signal (human Sdc2 [13]) | raw competing-Ab binding signal (human Sdc2 [14]) | raw competing-Ab binding signal (human Sdc2 [15]) | % Inhibition of VEGFA-induced permeability at 24hrs (20ug/ml) [16] [%] | raw competing-Ab binding signal (human Sdc2 [18]) | raw competing-Ab binding signal (human Sdc2 [19]) | raw competing-Ab binding signal (human Sdc2 [20]) | Kd (human Sdc2 [21]) [pM] | raw competing-Ab binding signal (human Sdc2 [22]) | raw competing-Ab binding signal (human Sdc2 [23]) | raw competing-Ab binding signal (human Sdc2 [24]) | further results
20-H19-AB (antibody, mouse IgG1, kappa, V domains shown, PentaMice hybridoma clone, made recombinantly in CHO cells; also called 20-H1-AB) VH: EVQLVESGGGLVQPKGSLKLSCAASGFTFNIYAMHWVRQAPGKGLEWIARIGSKSSYYATYYADSVKDRFTISRDDSQSMLYLQTNNLKTEDTAMYYCVSGKGDWGQGTTLTVSS VL: not shown | 0.0759 | 0.173 | 0.0082 | -0.0618 | 0.0503 | -0.102 | 0.0781 | -0.0355 | 0.0763 | 0.214 | 0.0503 | 90 | -0.0179 | 0.161 | 0.158 | 370 | 0.171 | 0.197 | 0.192 | Kd (human Sdc2 [2]): ~370 pM; Kd (pig Sdc2 [3]): < 1 pM; koff (pig Sdc2 [5]): < 1e-07 s⁻¹; kon (pig Sdc2 [5]): 70700 M⁻¹ s⁻¹; raw competing-Ab binding signal (human Sdc2 [11]): -0.0786; Kd (human Sdc2 [17]): 369 pM; koff (human Sdc2 [17]): 3.18e-05 s⁻¹; kon (human Sdc2 [17]): 86200 M⁻¹ s⁻¹
8-G17-A (antibody, V domains shown, PentaMice hybridoma clone, made recombinantly in CHO cells) VH: EVQLVESGGGLVKPGGSLKLSCEASGITFSNYVMSWVRQTPEKRLEWVATISDGGSYTYYPDNLKGRFTISRDNAKNNLYLQMSHLKSEDTAMYYCVRDRYDYDGRVYAMDYWGQGTSVTVSS VL: DVVMTQTPLSLPVSLGDQASISCRSSQSLVHSNGNTYLHWYLQKPGQSPKLLIYKVSNRFSGVPDRFSGSGSGTDFTLKITRVEAEDLGVYFCSQSTHVPWTFGGGTKLEIKR | 0.805 | 0.858 | 0.0566 | 0.776 | 0.113 | 0.636 | 0.784 | 0.0574 | 0.777 | 0.871 | 0.241 | 100 | 0.761 | 0.827 | 0.954 | 460 | 0.79 | 0.83 | 0.891 | Kd (human Sdc2 [25]): ~460 pM; Kd (pig Sdc2 [26]): ~450 pM; Kd (human Sdc2 [27]): 466 pM; koff (human Sdc2 [27]): 0.000235 s⁻¹; kon (human Sdc2 [27]): 505000 M⁻¹ s⁻¹; Kd (pig Sdc2 [28]): 455 pM; koff (pig Sdc2 [28]): 0.000195 s⁻¹; kon (pig Sdc2 [28]): 428000 M⁻¹ s⁻¹; raw competing-Ab binding signal (human Sdc2 [29]): 0.16
